# Measured values published in patent US11541101B1, “LEMD3 antagonizes TGF-beta-driven Smad2/3 transcription in a stiffness-dependent fashion in both the nucleus and cytosol” (University of Virginia Patent Foundation, priority 2018, dated 2023).
# Assays:
# Assay type in all cases: cell-based, human
# Smad3 phosphorylation = test: phospho-Smad3 to total Smad3 ratio by western blot; settings: electroporation of TGFβ dosed HFFs on tissue culture plastic
# Smad2/3 = test: V5-Smad2/3 PLA with recombinant LEMD3 / CTF
# Procedure: In vitro PLA: Protein-protein PLA was per-formed with antibody pairs listed in Table 4 as described in (42) with the following modifications: cells were plated on FN-coated glass or hydrogels (Matrigen, Brea, Calif.). All primary antibody in-cubations were performed for 16-24 hours at 4 C and cells were counter-stained with 1:40 phalloidin-488 or phalloidin-546 in 1×PBS for 30 minutes at room temperature and/or further processed for IF imaging using the procedure recommended in Sigma's PLA Resource Center. For all recombinant LEMD3 and C-terminal fragment experiments, HFFs were electroporated as above and allowed to culture for 24 hours on 10 μg/mL fibronectin coated glass or hydrogels before fixation. For LEMD3-phospho-Smad2/3, LEMD3-Smad2/3+TGFβ and for Smad2/3-Smad4 PLA assays: cells were treated 90 minutes before fixation with 50 μg/mL for LEMD3- and CTF-Smad2/3 assays, 100 μg/mL TGFβ for LEMD3-phospho-Smad2/3 experiments and 500 μg/mL TGFβ for Smad2/3-Smad4 experiments. For FLAG post-staining of PLA processed tissues, cells were blocked with unlabelled AffiniPure donkey anti-rabbit antibodies (Jackson ImmunoResearch, West Grove, Pa.) at a 1:10 dilution in 1×PBS-T at room temperature for 1 hour before further IF processing with 1:1000 rabbit anti-FLAG (#F7425, Sigma-Aldrich, Darmstadt, Germany) for 1 hour in PBS-T at room temperature. Following three washes with PBS-T for 5 minutes, each sample was stained with 1:500 goat anti-rabbit 546 in PBS-T for 1 hour at room temperature, washed again and then counter-stained as above. For V5 post-staining of PLA processed samples, cells were incubated with 1:200 647 labelled anti-V5 antibody (R&D Systems, Minneapolis, Minn.) diluted in PBS-T at room tem-perature for 1 hour before washing three times in PBS-T for 5 minutes each and then counter-stained as above. Imaging and analysis were performed as described for high-resolution ex vivo PLA signals except that no tissue autofluorescence signal was measured or needed to be subtracted and, when appro-priate, other IF signal (e.g. FLAG) were measured in parallel. For cells on Matrigen HTS plates (FIGS. 2c & 2d), the confluence of cells prevented identifying individual cell boundaries. Instead the PLA signal was quantified as the PLA volume divided by the nuclear intensity for each image. Each data point represents at least 3 unique surfaces with at least 12 cells measured per surface. For Smad2/3-Smad4 experiments, only two independent hydrogels were analyzed for the “CTF 500 μg/mL” and “Neon 500 μg/mL” groups due to loss of hydrogels during processing. Each bar in FIG. 5D represents the mean with standard error of the mean for all the cells analyzed from that condition.
# Smad2/3-Smad4 complexes = test: Smad2/3-Smad4 PLA; settings: over-expression, 500 μg/mL TGFβ, 1 kPa hydrogels, p=0.0081
# Procedure: In vitro PLA: Protein-protein PLA was per-formed with antibody pairs listed in Table 4 as described in (42) with the following modifications: cells were plated on FN-coated glass or hydrogels (Matrigen, Brea, Calif.). All primary antibody in-cubations were performed for 16-24 hours at 4 C and cells were counter-stained with 1:40 phalloidin-488 or phalloidin-546 in 1×PBS for 30 minutes at room temperature and/or further processed for IF imaging using the procedure recommended in Sigma's PLA Resource Center. […] Imaging and analysis were performed as described for high-resolution ex vivo PLA signals except that no tissue autofluorescence signal was measured or needed to be subtracted and, when appro-priate, other IF signal (e.g. FLAG) were measured in parallel. […] Instead the PLA signal was quantified as the PLA volume divided by the nuclear intensity for each image. Each data point represents at least 3 unique surfaces with at least 12 cells measured per surface. For Smad2/3-Smad4 experiments, only two independent hydrogels were analyzed for the “CTF 500 μg/mL” and “Neon 500 μg/mL” groups due to loss of hydrogels during processing. Each bar in FIG. 5D represents the mean with standard error of the mean for all the cells analyzed from that condition.
# PPM1α = PPM1α PLA; settings: glass
# Procedure: In vitro PLA: Protein-protein PLA was per-formed with antibody pairs listed in Table 4 as described in (42) with the following modifications: cells were plated on FN-coated glass or hydrogels (Matrigen, Brea, Calif.). All primary antibody in-cubations were performed for 16-24 hours at 4 C and cells were counter-stained with 1:40 phalloidin-488 or phalloidin-546 in 1×PBS for 30 minutes at room temperature and/or further processed for IF imaging using the procedure recommended in Sigma's PLA Resource Center. For all recombinant LEMD3 and C-terminal fragment experiments, HFFs were electroporated as above and allowed to culture for 24 hours on 10 μg/mL fibronectin coated glass or hydrogels before fixation. For LEMD3-phospho-Smad2/3, LEMD3-Smad2/3+TGFβ and for Smad2/3-Smad4 PLA assays: cells were treated 90 minutes before fixation with 50 μg/mL for LEMD3- and CTF-Smad2/3 assays, 100 μg/mL TGFβ for LEMD3-phospho-Smad2/3 experiments and 500 μg/mL TGFβ for Smad2/3-Smad4 experiments. […] Imaging and analysis were performed as described for high-resolution ex vivo PLA signals except that no tissue autofluorescence signal was measured or needed to be subtracted and, when appro-priate, other IF signal (e.g. FLAG) were measured in parallel. […] Instead the PLA signal was quantified as the PLA volume divided by the nuclear intensity for each image. Each data point represents at least 3 unique surfaces with at least 12 cells measured per surface. For Smad2/3-Smad4 experiments, only two independent hydrogels were analyzed for the “CTF 500 μg/mL” and “Neon 500 μg/mL” groups due to loss of hydrogels during processing. Each bar in FIG. 5D represents the mean with standard error of the mean for all the cells analyzed from that condition.
molecule,measurement,setting,value
"CTF: consensus C-terminal fragment of LEMD3 (SEQ ID NO: 25), expressed from pFLAG-LEMD3p.Δ21-669-V5 (protein, listed as Homo sapiens, FLAG and V5 tags) MAAAAASAPQQLSDEELFSQRDSLIQPHDRKKMKKVWDRAVDFLAANESRVRTETRRIGGADFLVWRWIQPSASCDKILVIPSKVWQGQAFHLDRRNSPPNSLTPCLKIRNMFDPVMEIGDQWHLAIQEAILEKCSDNDGIVHIAVDKNSREGCVYVKCLSPEYAGKAFKALHGSWFDGKLVTVKYLRLDRYHHRFPQALTSNTPLKPSNKHMNSMSHLRLRTGLTNSQGSS",pSmad3/Smad3 ratio,Smad3 phosphorylation,decreased the pSmad3/Smad3 ratio
same,overall CTF-Smad2/3 interactions versus electroporation control fibroblasts,"Smad2/3; 1 kPa p<0.0001, 25 kPa p=0.0227",significantly more overall CTF-Smad2/3 interactions
same,"CTF-Smad2/3 interactions, cytoplasm","Smad2/3; 1 kPa relative to 25 kPa hydrogels, p<0.0001",significantly more Smad2/3 interactions
same,CTF-Smad2/3 interactions overall,"Smad2/3; 1 kPa relative to 25 kPa hydrogels, p<0.0001, FIG. 5B",significantly more Smad2/3 interactions
same,"CTF-Smad2/3 interactions, nucleus","Smad2/3; 1 kPa relative to 25 kPa hydrogels, p=0.0082",significantly more Smad2/3 interactions
same,fraction of CTF-Smad2/3 interactions in the nucleus,"Smad2/3; depending on stiffness, FIG. 5B",40-55%
same,TGFβ-driven increase in Smad2/3-Smad4 complexes,Smad2/3-Smad4 complexes,significantly abrogated
same,"PPM1α interactions, total","PPM1α; vs Neon Only control, p<0.0001",bound PPM1α
same,"PPM1α interactions, cytoplasm","PPM1α; vs control, p=0.0081",bound PPM1α significantly above background
same,"PPM1α interactions, nucleus","PPM1α; vs control, p=0.2569",only endogenous LEMD3 was found to significantly bind PPM1α in the nucleus
